assay: yeast display, Sf9 membrane polyspecificity reagent, FACS + sequencing; frameworks hold sequencing errors
Summary of the method: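 Nanobodies came from a synthetic yeast display library in Saccharomyces cerevisiae BJ5465, induced with galactose for 36–48 hours and stained for 1 hour at 4 °C with 10% biotinylated, detergent-solubilized Sf9 membrane reagent. Cells were enriched on streptavidin microbeads and then FACS-sorted, with low and high (top ~1%) gates set on anti-HA fluorescence for expression and streptavidin fluorescence for reagent binding. Each polyreactivity label reflects the gate a clone came from. Genes were amplified by colony PCR, sequenced by MiSeq 2 × 250 and filtered by CDR length.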

| Sequence | polyreactivity (PSR sort gate) |
| --- | --- |
| QVQLVESGGGLVQAGGSLRLSCAASGRIFKSYAMGWYRQAPGKERELVAGITSGGGTYYADSLKGRFTISRDNAKTTVYLQMNSLKPEDTPVYYCATRTYRESTYDYWGQGTQVTVSS | high polyreactivity |
| QVQLVESGGGLVQAGGSLRLSCAASGRIFKSYAMGWYRQAPGKERELVASITWSGGRTYYADSVKGRFTISRDNAKNTVYLQMNSLIPEDTAVYYCAARTYSYGSILKYYYWGQGTQVTVSS | high polyreactivity |
| QVQLVESGGGLVQAGGSLRLSCAASGRIFKTYAMGWYRPAPGKERELVAAITASGGRTYYADSVKGRFTISRDNAKNTVYLQMNSLKPEDTAVYYCAKRPSYYARNSAYAYLSYGYWGQGTQVTVSS | low polyreactivity |
| QVQLVESGGGLVQAGGSLRLSCAASGRIFKVNTMGWYRQAPGKVRELVASIRGGGSTNYADSVKGRFTISRDNAKNTVYLQMNSLKPEDTAVYYCAAGTSKPTPIYGYWGQGTQVTGSS | low polyreactivity |
| QVQLVESGGGLVQAGGSLRLSCAASGRIFKVYAMGWYRQAPGKERELVATISRGGSTYYADSVKGRFTISRDNAKNTVYLQMNSLKPEDTAVYYCAKQRERYYWFGAWSYDYWGQGTQVTVSS | low polyreactivity |
| QVQLVESGGGLVQAGGSLRLSCAASGRIFKVYAMGWYRQAPGKERELVAVITGGGSTNYADSVKGRFTISRDNAKNTVYLQMNSLKPEDTAVYYCATEGYGHGGETDGGVYSDLGYWGQGTQVTVSS | low polyreactivity |
| QVQLVESGGGLVQAGGSLRLSCAASGRIFKWNAMGWYRQAPGKERELVAAIRWSGTSTYADSVKGRFTISRDNAKNTVYLQMNSLKPEDTAVYYCAASKRYTVGVRAFGKHDYWGQGTQVTVSS | low polyreactivity |
| QVQLVESGGGLVQAGGSLRLSCAASGRIFKWNAMGWYRQAPGKERELVAAITYRDDTTYYADSVKGRFTISRDNAKNTVYLQMNSLKPEDTAVYYCNAAWRPCRPFRGFTEGEYDYWGQGTQVTVSS | low polyreactivity |
| QVQLVESGGGLVQAGGSLRLSCAASGRIFKWYAMGWYRQAPGKERELVAAITSGGGSTYYADSVKGRFTISRDNAKNTVYLQMNSLKPEDTAVYYCAVKGYRRWGYDYWGQGTQVTVSS | high polyreactivity |
| QVQLVESGGGLVQAGGSLRLSCAASGRIFKYNAMGWYRQAPGKERELLAAITRGGSTNYADSVKGRFTISRDNAKNTVYLQMNSLKPEDTAVYYCAALRSRYGRDMDYWGQGTQVTVSS | high polyreactivity |
| QVQLVESGGGLVQAGGSLRLSCAASGRIFKYYAMGGYRQAPGKERELVAAISGSGGSTFYADSVKGRFTISRDNAKNTVYLQMNSLKPEDSALYYCNADEVVWGYNYWGQVTQVTVSS | low polyreactivity |
| QVQLVESGGGLVQAGGSLRLSCAASGRIFKYYAMGWSRQAPGKERELVPAINRDGGRTYYADSVKGRFTISRDNAKNTVYLQMNSLTPEETAVYYCAASYGYVYTTSLDYWGQGTQVTVSS | low polyreactivity |
| QVQLVESGGGLVQAGGSLRLSCAASGRIFLFYAMGWYRTAPGKERELVAGIRSGGSTNYADSVKGRFTISRDNAKNTVYLQMNSLKQEDTAVYYSAAASYFVYPRLEGYWGQGTQVTVSS | low polyreactivity |
| QVQLVESGGGLVQAGGSLRLSCAASGRIFLGNALGWYRQPPGNERELVAAITYSGRSTYYADSVKGRFTISRDHAKNTVYLQMNSLKPEDTAVYFCAARQYWTTDLPFQRYYYWGQGTQVTVSS | low polyreactivity |
| QVQLVESGGGLVQAGGSLRLSCAASGRIFLGNAMGWYRQAPGKERDLVAAITNGGGSTYYADSVKGRFTISRDNAKNTVYLQMNSLKPEDTAVYYCARGYKKSVQRFEYWGQGTQVTVSS | high polyreactivity |
| QVQLVESGGGLVQAGGSLRLSCAASGRIFLGYAMGWYRQAPGKERELVAAISAGGGSTYYADSVKGRFTISRDTAKNTVYLLMNSLKPEDTAVYYCAARRPHIPVKTYDYWGQGTQVTVSS | high polyreactivity |
| QVQLVESGGGLVQAGGSLRLSCAASGRIFLGYTMGWYIQAPGKERELVAAISYTGGSTYYADSVKGRFTISRDNAKNSVYLQMNSLKPEDTAVYYCAAGTRFSYYWGQGTQLTVSS | high polyreactivity |
| QVQLVESGGGLVQAGGSLRLSCAASGRIFLINAMGWYRQAPGKERELVAAITGGGGSTYYADSVKGRFTISRDNAKNTVYLQMNSLKPEDTAVYYCAARGTAERDYWGQGTQVTVSS | high polyreactivity |
| QVQLVESGGGLVQAGGSLRLSCAASGRIFLKYAMGWYRQAPGKERELVAAISSSGGSTYYADSVKGRFTISRDNAMNTVYLQMNSLKPEDTAVYYCNALYKRGSSYFIGDGYWGQGTQVTVSS | high polyreactivity |
| QVQLVESGGGLVQAGGSLRLSCAASGRIFLRNAMGWYRQAPGNERELVATITSRGGSTYYADSVKGRFTISRDNAKNTVYLQMNSLKPEDTAVYYSAADPSRYRSFGYVYGGYYYWGQGTQVTVSS | low polyreactivity |
| QVQLVESGGGLVQAGGSLRLSCAASGRIFLRNAMGWYRQEPGKERELVASIDRSGGSTYYADSVKGRFTISRDNAKNTVFLQMNSLKPEDTAVYYCAAAYWYLYYYWGQGTQVTVSS | low polyreactivity |
| QVQLVESGGGLVQAGGSLRLSCAASGRIFLSNAMGWYRQAPGKERELVASITSGGSTNYADSVKGRFTISRDNAKNTVYLQMNSLKPEDTAVYYCAKRYRHSGYFVGFNYWGQGTQVTVSS | high polyreactivity |
| QVQLVESGGGLVQAGGSLRLSCAASGRIFLSYTMGSYRQAPGKERELVAAISRGGRTYYADSVKGRFTISLDNAKNTVYLQMNSLKPEDTAVYYCAKKYGRYGSLRGRTIDDYWGQGTEVTVSS | low polyreactivity |
| QVQLVESGGGLVQAGGSLRLSCAASGRIFLTNAMGWYRQAPGKERELVADITSGGATYYADSVKGRFTISRDNAKNSVYLQMNSLKPVDTAVYYCNADTDRYWPYEYDYWGQGSQVTVSS | low polyreactivity |
| QVQLVESGGGLVQAGGSLRLSCAASGRIFLVNAMGWYRQAPGKERELVAAINFISGSTYYADSVKGRFTISRDNAKNTVYLQMNSLKPEDTAVYYCAAYSYWSYVQRYKLEYDYWGQGTQVTVSS | low polyreactivity |
| QVQLVESGGGLVQAGGSLRLSCAASGRIFLWYAMGWYRQAPGKERELVAAISRTGGSTYYADSVKGRFTISRDNAKNTVYLQMNSLKPEDTAVYFCAAYHSYKTSWPQSGYWGQGTQVTVSS | high polyreactivity |
| QVQLVESGGGLVQAGGSLRLSCAASGRIFLWYAMGWYRQAPGKERELVAAISSGGSTIYADSVKGRFTISRDNAKNTVYLQMNSLKPEDTAVNYCAAFPTQRRHPLVGFNSWGQGTQVTVSS | high polyreactivity |
| QVQLVESGGGLVQAGGSLRLSCAASGRIFLWYAMGWYRQAPGKERELVAAISSNGGSTRYADSVKGRFTFSRDNAKNTVYLQMNSLKPEDTAVYYCNADVHWNRYPYGGNGYGYWGQGTQVTVSS | low polyreactivity |
| QVQLVESGGGLVQAGGSLRLSCAASGRIFLWYAMGWYRQAPGKERELVAGISSGASTYYADSVKGRFTISRDNAKNTVYLQMNSLKPEDTAVYYCAAPYYRLTGWSRYDYWGQGTQVTVSS | high polyreactivity |
| QVQLVESGGGLVQAGGSLRLSCAASGRIFLYYAMGWYRQAPGKERELVAAISFRGGSTYYADSVKGRFTISRDNAKNTVYLQMNSLKPEDTAVYYCNAVRDWGPSQVYDGMDYWGQGTQVTVSS | low polyreactivity |
